From patent US10450368 (DUKE UNIVERSITY, dated 2019) come the findings set out here.

The target in one assay is CH0505_CON D7gp120/293i. Put plainly: ELISA. For orientation: ELISA stands for enzyme-linked immunosorbent assay.
For the next assay, the target named is T1, CH505w020.14D8gp120.
T1 construct: also called CH505w20.14 gp120
Put plainly: ELISA.

A further assay has as its target T2, CH505w030.20D8gp120/293F.
T2 construct: also called CH505w30.20 gp120
Briefly: ELISA.

The target of another assay is T3, CH505.w30.12D8gp120.
T3 construct: also called CH505w30.12 gp120
Briefly: ELISA.

In the next assay the target is CH505w136.B18D8gp120. Briefly: ELISA.
A further assay addresses CH505.M5D8gp120293F. Put plainly: ELISA.
For a further assay, the target named is CH505.M10D8gp120. Briefly: ELISA.
Another assay deals with CH505.M11D8gp120/293F. Put plainly: ELISA.
The next assay concerns the target CH505.M19D8gp120. Briefly: ELISA.
A further assay addresses CH505.M21D8gp120/293F. Briefly: ELISA.
The next assay addresses CH505.M9D8gp120/293F. Briefly: ELISA.
Another assay deals with CH505.M7D8gp120/293F. Briefly: ELISA.
Another assay deals with T4, CH505.TF mutant gp120 M6 (HIV-1).
T4 construct: domain: gp120
Put plainly: ELISA.

For the next assay, the target named is T5, CH505.TF mutant gp120 M8 (HIV-1).
T5 construct: domain: gp120
Briefly: ELISA.

Assay [1] deals with T6, CH505.TF mutant gp120 M20 (HIV-1).
T6 construct: domain: gp120
Put plainly: ELISA.

The next assay has as its target T7, Scl-70 (UniProt P11387 1-765).
T7 sequence: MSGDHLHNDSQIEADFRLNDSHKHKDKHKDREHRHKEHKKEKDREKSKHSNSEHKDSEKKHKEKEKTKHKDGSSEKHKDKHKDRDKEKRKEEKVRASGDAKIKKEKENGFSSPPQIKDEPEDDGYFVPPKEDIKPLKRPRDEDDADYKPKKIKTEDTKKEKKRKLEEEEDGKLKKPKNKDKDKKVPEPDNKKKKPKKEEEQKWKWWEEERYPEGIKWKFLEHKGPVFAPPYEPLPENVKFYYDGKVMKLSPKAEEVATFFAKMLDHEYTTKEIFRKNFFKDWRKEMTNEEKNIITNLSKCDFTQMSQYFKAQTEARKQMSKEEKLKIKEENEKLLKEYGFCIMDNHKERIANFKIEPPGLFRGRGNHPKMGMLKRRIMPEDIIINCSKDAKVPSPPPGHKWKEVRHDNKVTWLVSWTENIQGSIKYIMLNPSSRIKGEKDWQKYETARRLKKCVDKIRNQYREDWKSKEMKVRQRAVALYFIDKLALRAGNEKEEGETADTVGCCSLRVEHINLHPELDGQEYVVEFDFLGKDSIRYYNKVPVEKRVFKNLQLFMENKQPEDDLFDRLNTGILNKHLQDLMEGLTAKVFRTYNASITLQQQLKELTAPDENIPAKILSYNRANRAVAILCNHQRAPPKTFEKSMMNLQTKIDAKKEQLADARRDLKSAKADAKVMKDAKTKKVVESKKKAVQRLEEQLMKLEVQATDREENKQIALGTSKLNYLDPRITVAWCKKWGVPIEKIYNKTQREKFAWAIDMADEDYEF
Put plainly: ELISA, LogAUC grade.

B1: CH235.13 (antibody, V domains shown)
VH: QVQLVQSGGGVKRPGSTTTISCVASGYSFNDYYIHWVRQAPGQGLEVLGFIDPSNGRTNYAGAFGDRFSMYRDKSMETLYMDLRNLRSDDTAMYYCVRNVGTAGSLLHYDHWGTGSKIIVSS
VL: EIVLTQSPATLSASPGERVTLTCRASRGVRNNVAWYQHNVGQSPRLLIYDASTRAPGIPARFSGSASGTEFTLAISSIQSEDFTLYYCHQYNNWWTFGQGTRVDIN
With B1, the LogAUC worked out at 6.23 with CH0505_CON D7gp120/293i; 6.14 with CH505w020.14D8gp120; 5.41 with CH505w030.20D8gp120/293F; 1.05 with CH505.w30.12D8gp120; 1.76 with CH505w136.B18D8gp120; 6.53 in the assay with CH505.M5D8gp120293F. Moreover, the LogAUC in the assay with CH505.M10D8gp120 came to 6.38; in the assay with CH505.M11D8gp120/293F, 5.35; with CH505.M19D8gp120 it was 2.89; in the assay with CH505.M21D8gp120/293F, 0; with CH505.M9D8gp120/293F, 0; with CH505.M7D8gp120/293F, 0. Also, the LogAUC was 6.07 with CH505.TF mutant gp120 M6, 0 in the assay with CH505.TF mutant gp120 M8 and 0 in [1]. In the assay with Scl-70, the binding result is listed as “no binding”.

B2: CH556 (antibody, V domains shown)
VH: QVQLVQSGGTVKSPGTSVTLSCKTSGYNFIDYYIHWVRRAPGQRPELMGYIDPSHGRPDYEGKFRDRISLYRDTSTSVVYMDVRGLRLDDTALYYCVRGGGVEVSSNHYDHWGPGTMVFVSP
VL: ETTLTQSPDTLSASPGERVTLSCRAAQSVGSQVAWFRHIRGQPPRLLISGASTRAAGVPARFSGSGSGTDFTLTISGMQSEDFAEYFCQQYHMWWTFGQGTRVDKN
notes: also called CH235.11
Turning to B2, the LogAUC amounted to 0.26 in the assay with CH0505_CON D7gp120/293i; 0.11 with CH505w020.14D8gp120; 0.69 with CH505w030.20D8gp120/293F; 0 in the assay with CH505.w30.12D8gp120; 0.11 with CH505w136.B18D8gp120; 1.26 with CH505.M5D8gp120293F. Besides, the LogAUC with CH505.M10D8gp120 stood at 1.06; with CH505.M11D8gp120/293F, 0.11; with CH505.M19D8gp120, 0.09; in the assay with CH505.M21D8gp120/293F, 0.1; with CH505.M9D8gp120/293F, 0.23; with CH505.M7D8gp120/293F, 0. For the same molecule, the LogAUC with CH505.TF mutant gp120 M6 came out at 0.09; in the assay with CH505.TF mutant gp120 M8 it was 0.29; in assay [1], 0.28. The binding result with Scl-70 is recorded as “no binding”.

B3: CH555 (antibody, V domains shown)
VH: QVQLVQSGATVKKPRASVTLSCRTSGYNFIDYFIHWVRRAPGQRLEVMGYIDPSRGRPDYAPNFRDRVSLYRDTSMSIVYLDLRDLTPDDTAIYYCVRSEGTEGTVLHYDHWGPGTRVTVSP
VL: EIVLTQSPDTLSASPGERVTLSCRASQSVGTKVAWYRHVRGQPPRLLIYGASTRAAGIPARFSGGGSGTNFTLIINNFQSEDFAEYLCQQYKSWWTFGQGTKVDNK
notes: also called CH235.10
Take B3: the LogAUC in the assay with CH0505_CON D7gp120/293i was determined as 7.23; in the assay with CH505w020.14D8gp120, 5.63; with CH505w030.20D8gp120/293F, 5.62; with CH505.w30.12D8gp120, 0; in the assay with CH505w136.B18D8gp120, 5.54; with CH505.M5D8gp120293F, 2.62. The LogAUC was determined as 1.06 in the assay with CH505.M10D8gp120; 5.05 in the assay with CH505.M11D8gp120/293F; 0 with CH505.M19D8gp120; 0 with CH505.M21D8gp120/293F; 0.07 in the assay with CH505.M9D8gp120/293F; 0.09 with CH505.M7D8gp120/293F. In addition, the LogAUC came out at 5.67 with CH505.TF mutant gp120 M6, 0 in the assay with CH505.TF mutant gp120 M8 and 0 in assay [1]. The binding result in the assay with Scl-70 was “no binding”.
